Laboratory results taken from the DeepSol protein solubility set.

Experiment: soluble on expression in E. coli; label from the status in PepcDB or PDB records

Row | Sequence | soluble on expression in E. coli
1 | MSLRHDVILVLLDGLNHSVARDCMGHLQALCGAGRGQSYRLECELPSLSRPLYECILTGVPPIDSGILHNDVVRLSQEQSLFHYARAAGLSTAAAAYHWVSELYNRAPFDPARDRHTDDSALPIQRGHFYWSDHYPDSHLFADAESLRRRHAPNFMLVHSMNIDDAGHRHGLASPAYRNAARRADALLSEYLHQWLAAGYQVAITADHGMNEDRSHGGILEEEREVPLFVFGDAFSRDDLAQPLQTDLCGTLCEILGAAHDKPVCREEGHHHHHH | not soluble
2 | MTDLELQQLVATISMHDFHRPFQHRAYFNARLRTTGGRYQLASHDIDINPKMLTDFDEATLIGVIKHELCHYHLHLTKRGYRHRDADFKRLLAQVGGSRYAPAPKQATARPYRYIYECQRCGRRYYRKRRMDTRRYTCGRCQGPIKLVLEHHHHHH | soluble
3 | MSKQQEQDTPSFGEIRQRLQAGEDFDLAHRLQEREYEMYYNHNRNVNGTIVGDRKKTREEQIAEDEHAASLRRLGHAERSMSDEEYARQLQEEMDRLDASIQMDKEAQLREDARMAWLLQQESSATPAPSRHSGDLISFEDQPQQSSNTTTSSSCQSANNS | not soluble
4 | MAIPKIASYPLPVSLPTNKVDWRIDASRAVLLIHDMQEYFVHYFDSQAEPIPSLIKHIQQLKAHAKQAGIPVVYTAQPANQDPAERALLSDFWGPGLSEETAIIAPLAPESGDVQLTKWRYSAFKKSPLLDWLRETGRDQLIITGVYAHIGILSTALDAFMFDIQPFVIGDGVADFSLSDHEFSLRYISGRTGAVKSTQQACLEIAAQHSKLTGLSLRTMQHDVAAALNLSVDEVDVQENLLFLGLDSIRAIQLLEKWKAQGADISFAQLMEHVTLQQWWQTIQANLHQPCSA | not soluble
5 | MGSDKIHHHHHHMQNLPIYLYPNTLDVILDSGATTKGVNRVMYQHELKIQKGIKNKVRIQFKNSDQKRIVTSGTYVFSMYDAINQRLLLEKPLDILDDGTTFALRGLAELTLTENDTMDLDVSKYQFSVKYLDEDGTYLPTYSNTYYGVTGTLNLLQDVYPVLQPSQEITSFDRTYDDSIQLYQWRSGNIYATPEFNGNSALHTIAMYMTGFKGKVLVQGTLYNTPSSFNRYVTLGRKRV | not soluble
6 | MRGSHHHHHHGSMTRSALVTGITGQDGAYLAKLLLEKGYRVHGLVARRSSDTRWRLRELGIEGDIQYEDGDMADACSVQRAVIKAQPQEVYNLAAQSFVGASWNQPVTTGVVDGLGVTHLLEAIRQFSPETRFYQASTSEMFGLIQAERQDENTPFYPRSPYGVAKLYGHWITVNYRESFGLHASSGILFNHESPLRGIEFVTRKVTDAVARIKLGKQQELRLGNVDAKRDWGFAGDYVEAMWLMLQQDKADDYVVATGVTTTVRDMCQIAFEHVGLDYRDFLKIDPAFFRPAEVDVLLGNPAKAQRVLGWKPRTSLDELIRMMVEADLRRVSRE | soluble
7 | EDKIMSYNAFFWMWVHDMLIDSIKWRDEHGRCINKDKGKTCIKGCNKKCICFQKWVEQKKTEWGKIKDHFRKQKDIPKDWTHDDFLQTLLMKDLLLEIIQDTYGDANEIKRIEALLEQAGVGGIDFAALAGLYTKGFVAEKDTTIDKLLQHEQKEADKCLKTHTDDTCPPQEDRSVARS | soluble
8 | MRNPKQTRGKQTKSKIINAAFELFSEKGYTGTSSNEIASRAEVAIGSFYSYFKDKKQLFIEVLKDYYDNISKISFSNINGTISNLDDFLYESIKIALKAHEYHPEFHREVNIMELADDDIKKLIVGYEKVKFDSFKKLVEPYKNEFKNLNFNEALFLIYTTIENTVHVITFSTDTNLNKETLIKELISMIKSYINA | not soluble
9 | MAHHHHHHMSLADPHPLEAATTPASSLSNSIRLALLPASMKLPRDKSSSPELLAVFLPPDFCCMSVKSSTQNSSLFSSGISTVSPGRGCSVMEWRAIMQPVLLSLFKHWSVAAIRPGLFRRFCVGDVLFARERKLANSTPSAPCVNFPHRSTRVGAPRALRADCSSSSSSCKERKRHEWQDSRASESQEASPLLETSLPLLLWSSG | soluble
10 | MAHHHHHHMESINRNNNINKNEIDNKINNNNNMDVPIEGNEKSQEGDIIGQFGVGFYSSFVVSNKVEVFTRSYDNNSSKGYHWVSYGNGTFTLKEVDNIPKGTKIICHLKDSCKEFSNIQNVQKIVEKFSSFINFPVYVLKKKKILQTRKDIEQNELNDHTQQNELNHHNDQNDHTQQNELNHHNDQNDHTQQNELNHHNDQNDHTQQNELNHHVEHHKNVVENKNDEYEKNMDNRTSDNIKPESLSKQNDYENMNQCNNEETVLNRTKELNEEHIVEEILVNKQKPLWCKDNVTEEEHRHFFHFLNKNKSYNEDNKSYLYNMLYKTDAPLSIKSVFYIPEEAPSRLFQQSNDIEISLYCKKVLVKKNADNIIPKWLYFVKGVIDCEDMPLNISRENMQDSSLINKLSRVVVSKILKTLEREADINEEKYLKFYKNYNYNLKEGVLEDSNKNHYKNSLMNLLRFYSINQNKFISLKQYVNNFRNNQKNIYYFSANDKNVALNSPYMEPFKKQNIDVLLLLEEIDEFVLMNLQTYKDAKFVSIDTSQNEDFDEAVLNTNKNDNEKKQSIFFNDEQKKELQAYFKQVLGSKCSDVKFSERLTTSPAVVTGFLSPTLRKVMKATMKNSDFNDNTNNSNNMNMFQNLPATLELNPSHTIVTSIYHLKNTNQEVAKLLVQQLYDNACIAAGILEDPRSLLSKLNELLLLTARYAYHYEKKDIQENTKDQPIDVKDNTMAIDNIVNTKENNTNDDSVMKEAQSSNL | not soluble
11 | MGSDKIHHHHHHMNQMQQWKPDFLGEGYQNLTIELGDDPDNETDVVTTVVRYNPDNHADESFAARPALLWVHGMTDYFFHTEFAEFFHNAGFAVYGIDLRKCGRSYRPGQQWHYTSDLAHYFPDLTAAAEVISSTHPELVPVAHSTGGLIVPLWMSQMRTSNPAAIEKIPALVLNSPWLDMMYPPLFIKLITPMVRVLGKRSPTTIIPGGGLGAYGKSIHKNFYGEWDFDTTIKPVEGHKKSIGWLRAVMAGQAEIHHDHVNVGVDVLTLCSNKSWLKSEYTEDTNTSDAVLDVKHIQKWAPHLSSPSSRVDVEIIDNARHDIFLSRKPARDHASEVLNNWLQSKLSSLKPSQ | not soluble
12 | MAEAGDENLYAAARDIARALGKDPSAAGDILQILSGYGASGNRGGDPRPTPSRGGSNVNFDRALTSLERQISSYIVEDRPIWSDPVDSRTFLDSVDELLAIAGDLRSMAGDKSVAVCQSRADELIQQVMFRLQEEFGFVMDRAPDSFDSDDEFPGEEDNDTSDGVIVARPITDYKIVIEALQSSVIGDLNAIAVRMVAGGFAKECSRVYSSRRREFLEESLSRLHLRGLSMEEVQESPWQDLEDEIDRWIKAVTLIFHVFFPSERLLCDRVFSDLPVSSVTDLSFMEVCRGTTTQLLNFADAIALGSRLPERLFKVVDLYEAMQDLIPKMETLFSDRYCSPLRHEALAIHKRLGEAIRGIFMELENLIRRDPPKTAFPGGGIHPITRYVMNYLRAACKSRQSLEQILDQTGNETGSDTRPLSVQIIWVLELLESNLEGKKRTYRDPSLCFLFMMNNDKYILDKAKDNELGLVLGEDWIVKHAAKLRQYHSNYRRSSWNQVVGLLRTDGPYPKLVENLRLFKSQFDEVCKVQSQWVVSDGQLREELRSSVAGIVSPAYSNFIRRLKESPEINGRRGEPFIPYTVEDVEFIIKRLFKESSS | soluble
13 | MSLKASLLQEQSLRLAMTQELRQAITMLQYNVQELSEFLYEQSLENPLIELGGFEREKKKSSNNSKSTSKQVENQMEIYSVDSTTIQQHLLNQIQYYKIEEEERKVASFIIMNMDGNGYLQETNEELANLLSAPLHVVDRSVELVQSLEPAGVGARNIQECLTLQLKRLQRRNGLAEEVVEDHFAYFVKKDWRKLVQVLKCSNEELQDAVNCITSLQPKPGLAFSSDKPLYIVPDMAVKKDGDRLVLQMNERNMPRIEIHSEYSALLNNSESEVASYVSEKYQHVQWIMRSLKQRKQTLLQVMTIIMEKQRDFFWKGPEYLKPLALKEVAEELSVHESTISRATRNKYVQTPHGLFEMKSFFSNAVSTTEDEAVSTKRVKQFIQTLVEAENKKKPLSDQKISKLLEEEHEIVISRRTVAKYREQMHIPASSLRKTIGEGHHHHHH | not soluble
14 | MAIPSRSPLASRALSFLGALSLLTFAATPVLAESTPTAAPPQFAVESPKAASSLLLSVAHAGKRLVAVGDRGHILLSDDDGKTWTQAKVPTRQLLTSVFFVNERKGWAVGHDAQILVSDDAGSTWARQFEDLGREAPLLDIWFADEQHGLAVGAYGALLETRDGGQHWEDVSERLDNEDQFHLNAIAAVKDNGLLVVGEAGSLFRSKDWGATWEKLEGPYEGSLFGAIGTADAGGVLVYGLRGHLFRSADFGDSWEEIPLKAASGDLEFGLSDGALLADGRIVVVGHGGSVLESTDGGRSFSVFNRPDRLSLAGVSATGDGHLILVGQGGVHLAAANGAALEQQQLEHHHHHH | soluble
15 | MILLFGGTTEGRQAAALCDRLGLPFIYSTKTRVEPFATACGEFRHGALDEAALSELVSSSGVRLVIDAAHPFAARLHRSLFEVCQHLAVRLIRFDRPSVDVPDFEGLHSVADFTEALALLDRLNPAKLLALTGVQSIAPLRPWWEQHDMLLRILPTQASMELARREGIPEAQLLPMNPDSSDEALEKLVRKHGVDCLLAKESGESGFFSSKLRVAERCAIPLIVIRRPPAPAYDVVATSVEELEALLPD | soluble
16 | MDPVEAGDWIAGRPLQLVFLSGLNPVNKPAHNSIVNVFRNRTADKPPLHIRVVSGELDIPPKRETGSGKGILRREWPQKYLDKVPALIVVFIDLEWDHPSWEEKKTEAESKVASIRGSLRHGTKIALVLIQQKSTSISDNLAADRAHELCQACSLSSKQLFILPADNLLAPNTTNLQNFALKLELAFHELCQAFYQQRLKTIRSRNIPNNSPALVVRQQFKLAFLSELRQDTHTALRNYRLAYDQCRDTVEQWDGVDVFEWRSVVGLLNYKVQQGLLKTKNSVISTRGMCELCFLHSTALEAINQMRRHTTVFFSSSPGIYPTPHLASIELLLWKSKQCYQFAHLFERSVAGGLSALATLNPGTHLDQAASIYSAANTEIAALKRNAPQNVPYPSPDPLANSSSTVFFGQRPWRINHEGLATAEVEAAAVTAIIQRLVVNHEGVISLLSAALAQYQKYGCLRMKKKVMMEMANTCYANNEIQRALRFWGLVVKDNALPYSIRKDMMHRATWAAYAITSIQDYAVCCMQLMCPAYSEVLPSDCVKGLLDVLDGKPPGSPFPNDDISQEQLHTYQLQWQHVLQEHPAFVVQASKIAELFLETRVSFLDQQTVEQDSKVAVRVEIVSKIEQVIRLNDVSVHLKAKKFPPDANQTANDADCLIYDPIHLGSVEVSKSKPLQRVVLLDLKNAKQNWIVTVTKVTLDLGNAIRGNIEFDENALNRNCHVENIIGLEFLKIGVAKTSVKLESVEKVDCLIGEVTSTELTIRNTCKSSPIHGLQLDFKRKEQKHAEAAAVLFVEQDGTELKSEFSKSVCEQLGAGEMAKIPVMFSAQLVGDYVLQLELSYKISEDGILVTKSTMLEVGVTAKEPFTVTSTVMNMNGIPMTSILNNCDHILNASIQSAASIVISSVEFLMADVVTLCDTINGGSGKNLNDKVHSEEVICYSAVIRVLVKEDESETPLGRMSVEWRRAVPNSCPVRSVAPLCRIPVLACPISISSHIKTNPAIVRQPIEICFELKSHSKEAVEISTNFDLNDVFMFSGERKVTMTVLPGATRRVTVVVMALSAGRLNFPKISLKSPQISDQTLQQSLRTLPAAIFVLPKAKDLAPHP | not soluble
17 | SLNIKLKDFTMINAVSSLAPVQSLGNYKRVEKNEKVENNEAALDRVAEIKKAIENNQYKINLHETSHKMAKDLLGIS | soluble
